The chains are these.
B1: Kn125-L4-GS7 (antibody, human IgG1, kappa)
heavy 1: QDQLVQSGAEVKKPGASVKVSCKASGFNIKDTYIQWVRQAPGQGLEWMGRIDPLRKQTKYREKFEGRVTITADTSTNTAYMELSSLRSEDTAVYYCVRSGREFDYWGQGTLVTVSSASTKGPSVFPLAPSSKSTSGGTAALGCLVKDYFPEPVTVSWNSGALTSGVHTFPAVLQSSGLYSLSSVVTVPSSSLGTQTYICNVNHKPSNTKVDKKVEPKSCDKTHTCPPCPAPELLGGPSVFLFPPKPKDTLMISRTPEVTCVVVDVSHEEPEVKFNWYVDGVEVHNAKTKPREEQYNSTYRVVSVLTVLHQDWLNGKEYKCKVSNDALPMPIEETISKAKGQPREPQVYTLPPSRCELTKNQVSLSCAVKGFYPSDIAVEWESNGQPENNYKTTPPVLDSDGSFFLVSKLTVDKSRWQQGNVFSCSVMHEALHNHYTQKSLSLSP
heavy 2: QDQLVQSGAEVKKPGASVKVSCKASGFNIKDTYIQWVRQAPGQGLEWMGRIDPLRKQTKYREKFEGRVTITADTSTNTAYMELSSLRSEDTAVYYCVRSGREFDYWGQGTLVTVSSASTKGPSVFPLAPSSKSTSGGTAALGCLVKDYFPEPVTVSWNSGALTSGVHTFPAVLQSSGLYSLSSVVTVPSSSLGTQTYICNVNHKPSNTKVDKKVEPKSCDKTHTCPPCPAPEYQWGPMVFLFPPKPKDTLMISRTPEVTCVVVDVSDEEPEVKFNWYVDGVEVHNAKTKPREEQYNATYRVVSVLTVLHQDWLNGKEYKCKVSNGGSGGGSPIEKTISKAKGQPREPQVCTLPPSRDELTKNQVSLWCLVKGFYPSDIAVEWESNGQPENNYKTTPPVLDSDGSFFLYSKLTVDKSRWQQGNVFSCSVMHEALHNHYTQKSLSLSP
light: DIQMTQSPSSLSASVGDRVTITCRASQDIHKYIAWYQQKPGQAPRLLIQYTSTLQPGVPSRFSGSGSGTDYTFTISSLQPEDIATYYCLQYEQLRTFGGGTKVEIKRTVAAPSVFIFPPSDEQLKSGTASVVCLLNNFYPREAKVQWKVDNALQSGNSQESVTEQDSKDSTYSLSSTLTLSKADYEKHKVYACEVTHQGLSSPVTKSFNRGEC
notes: heterodimerized anti-EREG antibody: altered H240-Kn125 chain (Gly/Ser peptide in loop) with H240-Hl076 and L73-k0
B2: Kn125-L2a-6 (antibody, human IgG1, kappa)
heavy 1: B1 heavy 1
heavy 2: QDQLVQSGAEVKKPGASVKVSCKASGFNIKDTYIQWVRQAPGQGLEWMGRIDPLRKQTKYREKFEGRVTITADTSTNTAYMELSSLRSEDTAVYYCVRSGREFDYWGQGTLVTVSSASTKGPSVFPLAPSSKSTSGGTAALGCLVKDYFPEPVTVSWNSGALTSGVHTFPAVLQSSGLYSLSSVVTVPSSSLGTQTYICNVNHKPSNTKVDKKVEPKSCDKTHTCPPCPAPEYQWGPMVFLFPPKPKDTLMISRTPEVTCVVVDVSDEGGSGGSEPEVKFNWYVDGVEVHNAKTKPREEQYNATYRVVSVLTVLHQDWLNGKEYKCKVSNKALPAPIEKTISKAKGQPREPQVCTLPPSRDELTKNQVSLWCLVKGFYPSDIAVEWESNGQPENNYKTTPPVLDSDGSFFLYSKLTVDKSRWQQGNVFSCSVMHEALHNHYTQKSLSLSP
light: B1 light
notes: as for B1
B3: Kn125-L2a-3 (antibody, human IgG1, kappa)
heavy 1: B1 heavy 1
heavy 2: QDQLVQSGAEVKKPGASVKVSCKASGFNIKDTYIQWVRQAPGQGLEWMGRIDPLRKQTKYREKFEGRVTITADTSTNTAYMELSSLRSEDTAVYYCVRSGREFDYWGQGTLVTVSSASTKGPSVFPLAPSSKSTSGGTAALGCLVKDYFPEPVTVSWNSGALTSGVHTFPAVLQSSGLYSLSSVVTVPSSSLGTQTYICNVNHKPSNTKVDKKVEPKSCDKTHTCPPCPAPEYQWGPMVFLFPPKPKDTLMISRTPEVTCVVVDVSDEGGSEPEVKFNWYVDGVEVHNAKTKPREEQYNATYRVVSVLTVLHQDWLNGKEYKCKVSNKALPAPIEKTISKAKGQPREPQVCTLPPSRDELTKNQVSLWCLVKGFYPSDIAVEWESNGQPENNYKTTPPVLDSDGSFFLYSKLTVDKSRWQQGNVFSCSVMHEALHNHYTQKSLSLSP
light: B1 light
notes: as for B1
B4: Kn125-L2a-9 (antibody, human IgG1, kappa)
heavy 1: B1 heavy 1
heavy 2: QDQLVQSGAEVKKPGASVKVSCKASGFNIKDTYIQWVRQAPGQGLEWMGRIDPLRKQTKYREKFEGRVTITADTSTNTAYMELSSLRSEDTAVYYCVRSGREFDYWGQGTLVTVSSASTKGPSVFPLAPSSKSTSGGTAALGCLVKDYFPEPVTVSWNSGALTSGVHTFPAVLQSSGLYSLSSVVTVPSSSLGTQTYICNVNHKPSNTKVDKKVEPKSCDKTHTCPPCPAPEYQWGPMVFLFPPKPKDTLMISRTPEVTCVVVDVSDEGGSGGSGGSEPEVKFNWYVDGVEVHNAKTKPREEQYNATYRVVSVLTVLHQDWLNGKEYKCKVSNKALPAPIEKTISKAKGQPREPQVCTLPPSRDELTKNQVSLWCLVKGFYPSDIAVEWESNGQPENNYKTTPPVLDSDGSFFLYSKLTVDKSRWQQGNVFSCSVMHEALHNHYTQKSLSLSP
light: B1 light
notes: as for B1
B5: Kn125-L4-3 (antibody, human IgG1, kappa)
heavy 1: B1 heavy 1
heavy 2: QDQLVQSGAEVKKPGASVKVSCKASGFNIKDTYIQWVRQAPGQGLEWMGRIDPLRKQTKYREKFEGRVTITADTSTNTAYMELSSLRSEDTAVYYCVRSGREFDYWGQGTLVTVSSASTKGPSVFPLAPSSKSTSGGTAALGCLVKDYFPEPVTVSWNSGALTSGVHTFPAVLQSSGLYSLSSVVTVPSSSLGTQTYICNVNHKPSNTKVDKKVEPKSCDKTHTCPPCPAPEYQWGPMVFLFPPKPKDTLMISRTPEVTCVVVDVSDEEPEVKFNWYVDGVEVHNAKTKPREEQYNATYRVVSVLTVLHQDWLNGKEYKCKVSNKGGSALPAPIEKTISKAKGQPREPQVCTLPPSRDELTKNQVSLWCLVKGFYPSDIAVEWESNGQPENNYKTTPPVLDSDGSFFLYSKLTVDKSRWQQGNVFSCSVMHEALHNHYTQKSLSLSP
light: B1 light
notes: as for B1
B6: Kn125-L4-GS11 (antibody, human IgG1, kappa)
heavy 1: B1 heavy 1
heavy 2: QDQLVQSGAEVKKPGASVKVSCKASGFNIKDTYIQWVRQAPGQGLEWMGRIDPLRKQTKYREKFEGRVTITADTSTNTAYMELSSLRSEDTAVYYCVRSGREFDYWGQGTLVTVSSASTKGPSVFPLAPSSKSTSGGTAALGCLVKDYFPEPVTVSWNSGALTSGVHTFPAVLQSSGLYSLSSVVTVPSSSLGTQTYICNVNHKPSNTKVDKKVEPKSCDKTHTCPPCPAPEYQWGPMVFLFPPKPKDTLMISRTPEVTCVVVDVSDEEPEVKFNWYVDGVEVHNAKTKPREEQYNATYRVVSVLTVLHQDWLNGKEYKCKVSNGGSGGGSGGGSPIEKTISKAKGQPREPQVCTLPPSRDELTKNQVSLWCLVKGFYPSDIAVEWESNGQPENNYKTTPPVLDSDGSFFLYSKLTVDKSRWQQGNVFSCSVMHEALHNHYTQKSLSLSP
light: B1 light
notes: as for B1
B7: Kn125-L4-9 (antibody, human IgG1, kappa)
heavy 1: B1 heavy 1
heavy 2: QDQLVQSGAEVKKPGASVKVSCKASGFNIKDTYIQWVRQAPGQGLEWMGRIDPLRKQTKYREKFEGRVTITADTSTNTAYMELSSLRSEDTAVYYCVRSGREFDYWGQGTLVTVSSASTKGPSVFPLAPSSKSTSGGTAALGCLVKDYFPEPVTVSWNSGALTSGVHTFPAVLQSSGLYSLSSVVTVPSSSLGTQTYICNVNHKPSNTKVDKKVEPKSCDKTHTCPPCPAPEYQWGPMVFLFPPKPKDTLMISRTPEVTCVVVDVSDEEPEVKFNWYVDGVEVHNAKTKPREEQYNATYRVVSVLTVLHQDWLNGKEYKCKVSNKGGSGGSGGSALPAPIEKTISKAKGQPREPQVCTLPPSRDELTKNQVSLWCLVKGFYPSDIAVEWESNGQPENNYKTTPPVLDSDGSFFLYSKLTVDKSRWQQGNVFSCSVMHEALHNHYTQKSLSLSP
light: B1 light
notes: as for B1
B8: Kn125-L4-6 (antibody, human IgG1, kappa)
heavy 1: B1 heavy 1
heavy 2: B6 heavy 2 with G325K, S327G, G328S, G332A, G333L, G334P, S335A
light: B1 light
notes: as for B1
B9: Kn125-L2b-6 (antibody, human IgG1, kappa)
heavy 1: B1 heavy 1
heavy 2: B2 heavy 2 with G269E, S271G, G272S, S274G, E275S
light: B1 light
notes: as for B1
B10: Kn125-L2b-9 (antibody, human IgG1, kappa)
heavy 1: B1 heavy 1
heavy 2: B4 heavy 2 with G269E, S271G, G272S, S274G, G275S, S277G, E278S
light: B1 light
notes: as for B1
B11: Kn125-L2b-3 (antibody, human IgG1, kappa)
heavy 1: B1 heavy 1
heavy 2: B3 heavy 2 with G269E, S271G, E272S
light: B1 light
notes: as for B1

Where a chain is given by its changes, count along the chain named.

T1 sequence (P08637 other isoform, or with tags, fused parts or gaps): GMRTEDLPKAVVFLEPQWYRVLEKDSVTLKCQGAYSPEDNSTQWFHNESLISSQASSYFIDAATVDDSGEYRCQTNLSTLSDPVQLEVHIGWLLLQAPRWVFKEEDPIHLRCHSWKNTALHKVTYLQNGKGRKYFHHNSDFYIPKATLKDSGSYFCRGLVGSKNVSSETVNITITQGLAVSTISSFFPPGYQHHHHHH

This assay addresses T1, FcγRIIIaV (human, UniProt P08637 17-208).
T1 construct: extracellular domain
The assay is described as follows: SPR (Biacore), antibody captured, FcγR as analyte, 1:1 Langmuir fit.
Description: The antibody of interest was analyzed for its interaction with FcγR using a BiaCore™ T100, BiaCore™ A100, or BiaCore™ 4000 surface plasmon resonance system (GE Healthcare Japan Corp.). The running buffer used was HBS-EP+ (GE Healthcare Japan Corp.). The assay temperature was set to 25° C. The sensor chips used were: a chip prepared by immobilizing antigenic peptides onto Series S Sensor Chip CM5 (GE Healthcare Japan Corp.) by the amine coupling method; a chip prepared by immobilizing antigenic peptides biotinylated in advance onto Series S Sensor Chip SA (certified) (GE Healthcare Japan Corp.) through their interaction; a chip prepared by immobilizing protein L (ACTIGEN, BioVision, Inc.) onto Series S Sensor Chip CM5 (GE Healthcare Japan Corp.); and a chip prepared by immobilizing protein A/G (Thermo Fisher Scientific K.K.) onto Series S Sensor Chip CM5 (GE Healthcare Japan Corp.). The antibody of interest was captured onto any of these chips and allowed to interact with FcγR diluted with a running buffer. The antibody captured on the chip was washed off through the reaction of 10 mM glycine-HCl (pH 1.5) to regenerate the chip, which was repetitively used.
As to B1, binding was put at a Kd of 2 nM.

On to B2, for which the affinity, expressed as Kd, was 9.2 nM.

B3 registered a Kd of 10 nM.

B4 yielded a Kd of 11 nM.

Regarding B5, binding was characterised by a dissociation constant (Kd) of 6.9 nM.

B6 had a Kd of 1.5 nM.

For B7, the Kd is 1.7 nM.

B8 came in with a Kd of 1.7 nM.

Take B9: the Kd worked out at 6.3 nM.

Molecule B10 came in with a Kd of 7 nM.

In the case of B11, the Kd was found to be 7.8 nM.

The values above are taken from patent publication US20260167699A1 (Chugai, published 2026).
